From patent US20200055934A1 come the findings set out here.

Where two headings read alike, the source gives them in different places.

Holding throughout (assay): cell-based or functional assay
Assay [1] addresses Receptor for Advanced Glycation Endproducts (RAGE), human, full length (human) (UniProt Q15109).
Assay [2] shares this target. This is another data set of the same source.
The target is the same in assay [3]. The source holds these as a separate data set.

Sequence of UniProt Q15109 (Q15109 23-404 limits assumed): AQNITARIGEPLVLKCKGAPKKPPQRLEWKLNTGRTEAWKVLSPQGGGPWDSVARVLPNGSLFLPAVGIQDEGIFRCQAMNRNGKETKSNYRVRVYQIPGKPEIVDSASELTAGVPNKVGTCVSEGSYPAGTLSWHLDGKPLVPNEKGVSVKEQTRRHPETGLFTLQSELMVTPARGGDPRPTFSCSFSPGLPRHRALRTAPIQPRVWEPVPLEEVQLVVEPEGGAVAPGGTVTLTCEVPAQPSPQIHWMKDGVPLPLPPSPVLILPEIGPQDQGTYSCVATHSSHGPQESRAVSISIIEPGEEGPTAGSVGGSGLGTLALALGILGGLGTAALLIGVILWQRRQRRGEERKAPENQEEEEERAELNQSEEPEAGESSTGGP

With “SNIPER-MMAE (MAB11451 conjugated with vcMMAE) (antibody)”, in assay [1], the IC50, cell viability, TOV112D ovarian cancer cells, 24 h amounted to 16.7 µg/mL. Also, in assay [2], the IC50, cell viability, HEC1A endometrial cancer cells, 24 h was found to be 10.3 µg/mL; the IC50, cell viability, HEC1A endometrial cancer cells, 48 h came to 4.69 µg/mL; the IC50, cell viability, HEC1A endometrial cancer cells, 96 h was 1.02 µg/mL; the IC50, cell viability, HEC1B endometrial cancer cells, 24 h amounted to 29 µg/mL. In assay [2], this substance came in with an IC50, cell viability, HEC1B endometrial cancer cells, 48 h of 8.65 µg/mL; an IC50, cell viability, HEC1B endometrial cancer cells, 96 h of 5.67 µg/mL; an IC50, cell viability, HEC50 endometrial cancer cells, 48 h of 7.64 µg/mL; an IC50, cell viability, HEC50 endometrial cancer cells, 96 h of 2.18 µg/mL. In assay [2], this substance registered an IC50, cell viability, Ishikawa endometrial cancer cells, 24 h of 31 µg/mL; an IC50, cell viability, Ishikawa endometrial cancer cells, 48 h of 9.54 µg/mL; an IC50, cell viability, Ishikawa endometrial cancer cells, 96 h of 3.86 µg/mL; an IC50, cell viability, TOV112D ovarian cancer cells, 24 h of 22.6 µg/mL. In assay [2], the IC50, cell viability, TOV112D ovarian cancer cells, 48 h came out at 16.2 µg/mL; the IC50, cell viability, TOV112D ovarian cancer cells, 96 h came to 0.54 µg/mL; the IC50, cell viability, healthy endometrial cells, 48 h came to 10.7 µg/mL; the IC50, cell viability, healthy endometrial cells, 96 h turned out to be 15.2 µg/mL. The substance also came in with an IC50, cell viability, healthy ovarian cells, 96 h in assay [2] of 41 µg/mL.

As for “SNIPER-MMAF (MAB11451 conjugated with mcMMAF) (antibody)”, in assay [3], the IC50, cell viability, Ishikawa endometrial cancer cells, 24 h worked out at 16.7 µg/mL. Moreover, in assay [1], the IC50, cell viability, TOV112D ovarian cancer cells, 24 h is 2.5 µg/mL. In assay [2], this substance gave an IC50, cell viability, HEC1A endometrial cancer cells, 24 h of 24.1 µg/mL; an IC50, cell viability, HEC1A endometrial cancer cells, 48 h of 0.81 µg/mL; an IC50, cell viability, HEC1A endometrial cancer cells, 96 h of 0.74 µg/mL; an IC50, cell viability, HEC1B endometrial cancer cells, 48 h of 1.96 µg/mL. In assay [2], this substance displayed an IC50, cell viability, HEC1B endometrial cancer cells, 96 h of 1.27 µg/mL; an IC50, cell viability, HEC50 endometrial cancer cells, 24 h of 17.8 µg/mL; an IC50, cell viability, HEC50 endometrial cancer cells, 48 h of 0.86 µg/mL; an IC50, cell viability, HEC50 endometrial cancer cells, 96 h of 0.94 µg/mL. In assay [2], this substance showed an IC50, cell viability, Ishikawa endometrial cancer cells, 24 h of 16.7 µg/mL; an IC50, cell viability, Ishikawa endometrial cancer cells, 48 h of 6.48 µg/mL; an IC50, cell viability, Ishikawa endometrial cancer cells, 96 h of 2.42 µg/mL; an IC50, cell viability, TOV112D ovarian cancer cells, 48 h of 2.51 µg/mL. For the same substance, in assay [2], the IC50, cell viability, TOV112D ovarian cancer cells, 96 h is 0.59 µg/mL; the IC50, cell viability, healthy endometrial cells, 48 h amounted to 7.25 µg/mL; the IC50, cell viability, healthy endometrial cells, 96 h is 4.17 µg/mL; the IC50, cell viability, healthy ovarian cells, 48 h is 14.4 µg/mL. The same substance showed an IC50, cell viability, healthy ovarian cells, 96 h in assay [2] of 4.87 µg/mL.
